The source of these data is patent publication US20250197848A1 (published 2025).

Assay [1] deals with T1, PRAME peptide on HLA-A*02:01 (human).
T1 peptide: VLDGLDVLL
Kind of assay: cytokine release.

For assay [2], the target named is T2, PRAME peptide on HLA-A*02:01 (human).
T2 peptide: SLLQHLIGL
Kind of assay: activation reporter or marker.

Assay [3] concerns the target T3, NY-ESO-1/LAGE-1 peptide on HLA-A*02 (human).
T3 peptide: SLLMWITQC
The assay can be described thus: cytokine release.

B1: PRAMEVLD-TCR (TCR, V domains shown)
Valpha: EDQVTQSPEALRLQEGESSSLNCSYTVSGLRGLFWYRQDPGKGPEFLFTLYSAGEEKEKERLKATLTKKESFLHITAPKPEDSATYLCAVHSTAQAGTALIFGKGTTLSVSS
Vbeta: DSGVTQTPKHLITATGQRVTLRCSPRSGDLSVYWYQQSLDQGLQFLIQYYNGEERAKGNILERFSAQQFPDLHSELNLSSLELGDSALYFCASSTHRGQTNYGYTFGSGTRLTVV
Regarding B1, the binding result in assay [1] is on record as “recognises”; in assay [2] it was “no recognition”.

B2: NY-ESO TCR (TCR, V domains shown)
Valpha: QKEVEQNSGPLSVPEGAIASLNCTYSDRGSQSFFWYRQYSGKSPELIMFIYSNGDKEDGRFTAQLNKASQYVSLLIRDSQPSDSATYLCAADDKIIFGKGTRLHILP
Vbeta: DAGVIQSPRHEVTEMGQEVTLRCKPISGHDYLFWYRQTMMRGLELLIYFNNNVPIDDSGMPEDRFSAKMPNASFSTLKIQPSEPRDSAVYFCASSRGGSGYTFGSGTRLTVV
In the case of B2, the binding result in assay [3] was “recognises”.
